Data from the supplement of paper PMC10567573.

B1: DLC1 (parent)
chain: NDDSADYQHFLQDCVDGLFKEVKE

Variants of: B1
Experiment: protein stability index of a GFP-peptide fusion (GPS, HEK-293T) (PSI 1-6); higher = more stable
Conditions: c terminus: a fixed tail appended
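Further: lentivirally expressed fusions sorted by FACS into six bins by GFP to DsRed ratio, PSI derived from sequencing read proportions per bin multiplied by bin number.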

Compared with EDDSADYQHFLQDCVDGLFKEVKE, FDDSADYQHFLQDCVDGLFKEVKE is lower in protein stability index: 3 for the first, 1.5 for the second.

Going from GDDSADYQHFLQDCVDGLFKEVKE to HDDSADYQHFLQDCVDGLFKEVKE, the protein stability index rises from 1.9 to 2.29.

Compared with IDDSADYQHFLQDCVDGLFKEVKE, KDDSADYQHFLQDCVDGLFKEVKE is higher in protein stability index: 1.59 for the first, 3.44 for the second.

First: MDDSADYQHFLQDCVDGLFKEVKE
Second: QDDSADYQHFLQDCVDGLFKEVKE
The protein stability index of the first is lower: 1.79 for the first, 2.69 for the second.

First: RDDSADYQHFLQDCVDGLFKEVKE
Second: SDDSADYQHFLQDCVDGLFKEVKE
The protein stability index of the first is lower: 2.53 for the first, 2.6 for the second.

First: TDDSADYQHFLQDCVDGLFKEVKE
Second: VDDSADYQHFLQDCVDGLFKEVKE
The protein stability index of the first is higher: 2.6 for the first, 1.56 for the second.

Going from WDDSADYQHFLQDCVDGLFKEVKE to YDDSADYQHFLQDCVDGLFKEVKE, the protein stability index rises from 1.28 to 2.73.

Compared with NADSADYQHFLQDCVDGLFKEVKE, NCDSADYQHFLQDCVDGLFKEVKE is lower in protein stability index: 2.17 for the first, 2.14 for the second.

Going from NFDSADYQHFLQDCVDGLFKEVKE to NGDSADYQHFLQDCVDGLFKEVKE, the protein stability index rises from 2.47 to 4.54.

Going from NHDSADYQHFLQDCVDGLFKEVKE to NIDSADYQHFLQDCVDGLFKEVKE, the protein stability index falls from 2.66 to 2.18.

Compared with NKDSADYQHFLQDCVDGLFKEVKE, NLDSADYQHFLQDCVDGLFKEVKE is higher in protein stability index: 2.11 for the first, 2.37 for the second.

Compared with NMDSADYQHFLQDCVDGLFKEVKE, NNDSADYQHFLQDCVDGLFKEVKE is lower in protein stability index: 2.48 for the first, 2.27 for the second.

Going from NQDSADYQHFLQDCVDGLFKEVKE to NTDSADYQHFLQDCVDGLFKEVKE, the protein stability index falls from 2.91 to 2.65.

First: NVDSADYQHFLQDCVDGLFKEVKE
Second: NWDSADYQHFLQDCVDGLFKEVKE
The protein stability index of the first is lower: 1.96 for the first, 2.15 for the second.

Compared with NYDSADYQHFLQDCVDGLFKEVKE, NDASADYQHFLQDCVDGLFKEVKE is higher in protein stability index: 1.2 for the first, 2.77 for the second.

First: NDCSADYQHFLQDCVDGLFKEVKE
Second: NDESADYQHFLQDCVDGLFKEVKE
The protein stability index of the first is lower: 1.71 for the first, 3.85 for the second.

First: NDFSADYQHFLQDCVDGLFKEVKE
Second: NDGSADYQHFLQDCVDGLFKEVKE
The protein stability index of the first is higher: 3.3 for the first, 2.23 for the second.

First: NDHSADYQHFLQDCVDGLFKEVKE
Second: NDISADYQHFLQDCVDGLFKEVKE
The protein stability index of the first is lower: 2.17 for the first, 2.19 for the second.

Going from NDMSADYQHFLQDCVDGLFKEVKE to NDNSADYQHFLQDCVDGLFKEVKE, the protein stability index rises from 2.26 to 3.02.

Going from NDPSADYQHFLQDCVDGLFKEVKE to NDRSADYQHFLQDCVDGLFKEVKE, the protein stability index falls from 2.65 to 1.79.

Going from NDSSADYQHFLQDCVDGLFKEVKE to NDTSADYQHFLQDCVDGLFKEVKE, the protein stability index falls from 2.4 to 2.2.

Going from NDVSADYQHFLQDCVDGLFKEVKE to NDWSADYQHFLQDCVDGLFKEVKE, the protein stability index falls from 3.69 to 1.71.

Compared with NDYSADYQHFLQDCVDGLFKEVKE, NDDAADYQHFLQDCVDGLFKEVKE is higher in protein stability index: 2.24 for the first, 2.35 for the second.

Variant NDDCADYQHFLQDCVDGLFKEVKE has a protein stability index of 1.56.
